Target: PB2 polymerase subunit fused to Gluc1, of recombinant WSN virus (WSN-PB2-Gluc1) (UniProt P03427)
Conditions: parent: est. 100; read off a plot

“Gluc2-DDX19B wild type (from UniProt Q9UMR2) R428Q” gave a percent of parent of 68%.

Source: PMC5037575
